Test results as given in patent US20200199241A1 (Chugai, published 2020).

T1: human FcγRIIa(R) (human, UniProt P12318 36-217)
T1 construct: also called FcgRIIaR; hFcgRIIa(R)
T1 chain: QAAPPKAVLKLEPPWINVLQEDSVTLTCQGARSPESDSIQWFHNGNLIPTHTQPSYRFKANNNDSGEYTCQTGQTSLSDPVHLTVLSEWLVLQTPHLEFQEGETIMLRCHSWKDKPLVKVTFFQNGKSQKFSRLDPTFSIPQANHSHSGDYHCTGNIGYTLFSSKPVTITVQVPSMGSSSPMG

T2: human FcγRIIb (human, UniProt P31994 43-217, limits assumed)
T2 construct: also called FcgRIIb; hFcgRIIb
T2 sequence: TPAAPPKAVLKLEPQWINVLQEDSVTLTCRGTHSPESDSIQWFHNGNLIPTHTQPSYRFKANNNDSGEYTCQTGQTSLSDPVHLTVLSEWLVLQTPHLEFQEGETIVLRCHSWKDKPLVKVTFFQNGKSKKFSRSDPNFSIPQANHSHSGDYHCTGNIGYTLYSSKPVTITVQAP

T3: human FcγRIIa(H) (human, UniProt P12318 36-217)
T3 construct: also called FcgRIIaH; hFcgRIIa(H)
T3 sequence: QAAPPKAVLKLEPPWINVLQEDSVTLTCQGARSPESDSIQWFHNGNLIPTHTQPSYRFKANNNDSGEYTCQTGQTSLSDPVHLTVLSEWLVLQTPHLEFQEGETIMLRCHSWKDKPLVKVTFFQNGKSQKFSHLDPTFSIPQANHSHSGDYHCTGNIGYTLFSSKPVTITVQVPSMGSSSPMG


Key:
Experiment in all cases: SPR, captured antibody;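 note: antibody captured on a sensor chip, Fcγ receptor flowed over at 25 °C, receptor binding normalized to the captured antibody amount and expressed relative to the reference antibody ×100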
[1] = biological target: T4, human FcγRIa (human, UniProt P12314 16-292, limits assumed)
T4 construct: also called FcgRIa; hFcgRIa
Description: (§1) Interaction between each modified antibody and Fcγ receptor prepared in the manner described above was analyzed using the BIACORE™ T100 surface plasmon resonance system (GE Healthcare), BIACORE™ T200 surface plasmon resonance system (GE Healthcare), BIACORE™ A100 surface plasmon resonance system or BIACORE™ 4000 surface plasmon resonance system. HBS-EP+ (GE Healthcare) was used for the running buffer, and measurements were carried out at 25° C. The chips used were chips in which antigen peptides, Protein A (Thermo Scientific), Protein A/G (Thermo Scientific) or Protein L (ACTIGEN® protein (Alltech or BioVision) were immobilized on the Series S Sensor Chip CMS (GE Healthcare) or Series S Sensor Chip CM4 (GE Healthcare) by amine coupling, or chips in which preliminarily biotinylated antigen peptides were allowed to interact and then immobilized on the Series S Sensor Chip SA (certified) (GE Healthcare). The target antibodies were captured on these sensor chips, Fcγ receptor diluted with the running buffer was allowed to interact, followed by measurement of the amount of bound antibody. The amounts bound were compared between antibodies. However, since the amount of Fcγ receptor bound depends on the amount of captured antibody, the values used for comparison were first corrected by dividing the amount of Fcγ receptor bound by the captured amount of each antibody. Through reaction with 10 mM glycine-HCl at pH 1.5, the sensor chips were regenerated by washing off antibody captured on the sensor chips and used repeatedly.
(§2) Binding strength was evaluated according to the following method based on the results of analyzing the interaction with each FcγR. […] That value was then further multiplied by 100, and the resulting value was used as an indicator of relative binding activity to each FcγR.

[2] = biological target: T1, human FcγRIIa(R)
Description: as §1, §2

[3] = biological target: T2, human FcγRIIb
Description: as §1, §2

[4] = biological target: T3, human FcγRIIa(H)
Description: as §1, §2

T4 sequence (P12314 16-292 limits assumed): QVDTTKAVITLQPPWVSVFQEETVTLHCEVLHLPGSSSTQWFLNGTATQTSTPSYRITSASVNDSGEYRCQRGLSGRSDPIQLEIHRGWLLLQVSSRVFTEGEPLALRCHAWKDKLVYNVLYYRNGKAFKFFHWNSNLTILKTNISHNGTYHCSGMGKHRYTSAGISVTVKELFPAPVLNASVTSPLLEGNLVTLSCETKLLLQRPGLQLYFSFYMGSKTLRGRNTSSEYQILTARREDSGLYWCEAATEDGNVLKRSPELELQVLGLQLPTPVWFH

Row | relative binding activity [1] | relative binding activity [2] | relative binding activity [3] | relative binding activity [4] | Binder
1 | 84 % of GpH7-B3/GpL16-k0 | 1 % of GpH7-B3/GpL16-k0 | 3 % of GpH7-B3/GpL16-k0 | 37 % of GpH7-B3/GpL16-k0 | GpH7-B3 D270V/GpL16-k0 (antibody, human IgG1, B3 variant; copies: 2 + 2) heavy: not shown light: DIVMTQSPLSLPVTPGEPASISCQASESLVHSNRNTYLHWYLQKPGQSPQLLIYKVSNRFSGVPDRFSGSGSGTDFTLKISRVEAEDVGVYYCSQNTHVPPTFGQGTKVEIE
2 | 68 % of GpH7-B3/GpL16-k0 | -1 % of GpH7-B3/GpL16-k0 | -2 % of GpH7-B3/GpL16-k0 | 34 % of GpH7-B3/GpL16-k0 | GpH7-B3 D270N/GpL16-k0 (antibody, human IgG1, B3 variant; copies: 2 + 2) heavy: not shown light: DIVMTQSPLSLPVTPGEPASISCQASESLVHSNRNTYLHWYLQKPGQSPQLLIYKVSNRFSGVPDRFSGSGSGTDFTLKISRVEAEDVGVYYCSQNTHVPPTFGQGTKVEIE
3 | 82 % of GpH7-B3/GpL16-k0 | 2 % of GpH7-B3/GpL16-k0 | 0 % of GpH7-B3/GpL16-k0 | 78 % of GpH7-B3/GpL16-k0 | GpH7-B3 D270Q/GpL16-k0 (antibody, human IgG1, B3 variant; copies: 2 + 2) heavy: not shown light: DIVMTQSPLSLPVTPGEPASISCQASESLVHSNRNTYLHWYLQKPGQSPQLLIYKVSNRFSGVPDRFSGSGSGTDFTLKISRVEAEDVGVYYCSQNTHVPPTFGQGTKVEIE
4 | 73 % of GpH7-B3/GpL16-k0 | 0 % of GpH7-B3/GpL16-k0 | -1 % of GpH7-B3/GpL16-k0 | 49 % of GpH7-B3/GpL16-k0 | GpH7-B3 D270S/GpL16-k0 (antibody, human IgG1, B3 variant; copies: 2 + 2) heavy: not shown light: DIVMTQSPLSLPVTPGEPASISCQASESLVHSNRNTYLHWYLQKPGQSPQLLIYKVSNRFSGVPDRFSGSGSGTDFTLKISRVEAEDVGVYYCSQNTHVPPTFGQGTKVEIE
5 | 81 % of GpH7-B3/GpL16-k0 | 1 % of GpH7-B3/GpL16-k0 | -2 % of GpH7-B3/GpL16-k0 | 38 % of GpH7-B3/GpL16-k0 | GpH7-B3 D270T/GpL16-k0 (antibody, human IgG1, B3 variant; copies: 2 + 2) heavy: not shown light: DIVMTQSPLSLPVTPGEPASISCQASESLVHSNRNTYLHWYLQKPGQSPQLLIYKVSNRFSGVPDRFSGSGSGTDFTLKISRVEAEDVGVYYCSQNTHVPPTFGQGTKVEIE

Further lines, the binder ahead of its results:

Row | Binder | relative binding activity [1] | relative binding activity [2] | relative binding activity [3] | relative binding activity [4]
6 | GpH7-B3 D270F/GpL16-k0 (antibody, human IgG1, B3 variant; copies: 2 + 2) heavy: not shown light: DIVMTQSPLSLPVTPGEPASISCQASESLVHSNRNTYLHWYLQKPGQSPQLLIYKVSNRFSGVPDRFSGSGSGTDFTLKISRVEAEDVGVYYCSQNTHVPPTFGQGTKVEIE | 88 % of GpH7-B3/GpL16-k0 | 5 % of GpH7-B3/GpL16-k0 | 5 % of GpH7-B3/GpL16-k0 | 62 % of GpH7-B3/GpL16-k0
7 | GpH7-B3 D270M/GpL16-k0 (antibody, human IgG1, B3 variant; copies: 2 + 2) heavy: not shown light: DIVMTQSPLSLPVTPGEPASISCQASESLVHSNRNTYLHWYLQKPGQSPQLLIYKVSNRFSGVPDRFSGSGSGTDFTLKISRVEAEDVGVYYCSQNTHVPPTFGQGTKVEIE | 90 % of GpH7-B3/GpL16-k0 | 7 % of GpH7-B3/GpL16-k0 | 6 % of GpH7-B3/GpL16-k0 | 57 % of GpH7-B3/GpL16-k0
8 | GpH7-B3 D270I/GpL16-k0 (antibody, human IgG1, B3 variant; copies: 2 + 2) heavy: not shown light: DIVMTQSPLSLPVTPGEPASISCQASESLVHSNRNTYLHWYLQKPGQSPQLLIYKVSNRFSGVPDRFSGSGSGTDFTLKISRVEAEDVGVYYCSQNTHVPPTFGQGTKVEIE | 88 % of GpH7-B3/GpL16-k0 | 3 % of GpH7-B3/GpL16-k0 | 1 % of GpH7-B3/GpL16-k0 | 43 % of GpH7-B3/GpL16-k0
9 | GpH7-B3 D270L/GpL16-k0 (antibody, human IgG1, B3 variant; copies: 2 + 2) heavy: not shown light: DIVMTQSPLSLPVTPGEPASISCQASESLVHSNRNTYLHWYLQKPGQSPQLLIYKVSNRFSGVPDRFSGSGSGTDFTLKISRVEAEDVGVYYCSQNTHVPPTFGQGTKVEIE | 90 % of GpH7-B3/GpL16-k0 | 6 % of GpH7-B3/GpL16-k0 | 3 % of GpH7-B3/GpL16-k0 | 61 % of GpH7-B3/GpL16-k0
10 | GpH7-B3 D270H/GpL16-k0 (antibody, human IgG1, B3 variant; copies: 2 + 2) heavy: not shown light: DIVMTQSPLSLPVTPGEPASISCQASESLVHSNRNTYLHWYLQKPGQSPQLLIYKVSNRFSGVPDRFSGSGSGTDFTLKISRVEAEDVGVYYCSQNTHVPPTFGQGTKVEIE | 70 % of GpH7-B3/GpL16-k0 | 0 % of GpH7-B3/GpL16-k0 | -2 % of GpH7-B3/GpL16-k0 | 53 % of GpH7-B3/GpL16-k0
